Source: patent WO2016155745A1 (dated 2016)

Tests used:
[1] = molecular target: T1, full-length human recombinant PAD3 (human, UniProt Q9ULW8 1-664); test: ELISA, purified mAb 1:100 on PAD-coated plates (Fig. 2)
T1 construct: mature; Full-length recombinant protein coated on plates at 100 ng/mL
T1 sequence (looked up): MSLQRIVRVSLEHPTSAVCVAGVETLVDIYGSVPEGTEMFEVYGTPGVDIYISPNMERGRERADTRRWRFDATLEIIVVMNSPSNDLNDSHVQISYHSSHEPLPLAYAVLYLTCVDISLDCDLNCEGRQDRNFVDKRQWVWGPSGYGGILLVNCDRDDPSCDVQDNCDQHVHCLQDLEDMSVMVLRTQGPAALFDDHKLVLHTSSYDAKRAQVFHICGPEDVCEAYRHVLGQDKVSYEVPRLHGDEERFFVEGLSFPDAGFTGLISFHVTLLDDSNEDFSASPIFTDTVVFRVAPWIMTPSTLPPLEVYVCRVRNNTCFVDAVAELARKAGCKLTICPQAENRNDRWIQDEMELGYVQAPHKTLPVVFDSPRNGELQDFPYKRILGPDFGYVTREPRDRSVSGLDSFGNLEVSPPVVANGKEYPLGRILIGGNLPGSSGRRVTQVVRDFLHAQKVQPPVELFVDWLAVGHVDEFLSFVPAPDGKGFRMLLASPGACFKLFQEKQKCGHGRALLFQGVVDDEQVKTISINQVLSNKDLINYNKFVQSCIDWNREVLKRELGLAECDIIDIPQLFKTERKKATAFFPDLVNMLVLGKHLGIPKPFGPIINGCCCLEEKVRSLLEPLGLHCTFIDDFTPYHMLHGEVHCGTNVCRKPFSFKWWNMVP

[2] = molecular target: full-length human recombinant PAD4 (human, UniProt Q9UM07 1-663); test: as above
[3] = molecular target: T2, full-length human recombinant PAD2 (human, UniProt Q9Y2J8 1-665); test: ELISA, culture supernatant 1:20 on PAD2-coated plates (Fig. 3)
T2 construct: also called rhPAD2; recombinant human PAD2

murine recombinant PAD2 = molecular target: T3, murine recombinant PAD2 (mouse, UniProt Q08642 1-673, limits assumed); test: ELISA, culture supernatant 1:20 on mPAD2-coated plates (Fig. 3)
T3 construct: also called mPAD2; murine PAD2

[4] = molecular target: T2, full-length human recombinant PAD2; test: ELISA, purified mAb 1:100 on PAD-coated plates (Fig. 2)

Measured: binding result

T2 sequence (Q9Y2J8 whole entry): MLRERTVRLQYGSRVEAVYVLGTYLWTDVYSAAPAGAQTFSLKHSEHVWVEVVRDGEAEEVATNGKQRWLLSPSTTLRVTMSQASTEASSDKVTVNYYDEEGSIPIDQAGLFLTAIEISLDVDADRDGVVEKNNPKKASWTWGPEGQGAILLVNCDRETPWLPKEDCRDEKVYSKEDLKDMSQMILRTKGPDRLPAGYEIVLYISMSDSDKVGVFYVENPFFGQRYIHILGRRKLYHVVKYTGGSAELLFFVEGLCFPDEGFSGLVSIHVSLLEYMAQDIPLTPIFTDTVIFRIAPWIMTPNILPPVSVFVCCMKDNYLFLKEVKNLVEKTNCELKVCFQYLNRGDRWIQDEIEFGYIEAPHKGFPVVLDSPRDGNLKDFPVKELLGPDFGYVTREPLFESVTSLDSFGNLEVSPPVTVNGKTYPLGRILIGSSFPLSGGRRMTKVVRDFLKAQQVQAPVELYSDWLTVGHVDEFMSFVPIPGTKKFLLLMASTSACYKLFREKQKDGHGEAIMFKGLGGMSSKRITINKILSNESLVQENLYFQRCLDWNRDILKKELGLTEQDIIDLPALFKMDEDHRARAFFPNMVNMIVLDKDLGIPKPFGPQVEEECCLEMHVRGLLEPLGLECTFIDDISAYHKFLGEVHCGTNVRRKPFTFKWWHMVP
T3 sequence (Q08642 whole entry): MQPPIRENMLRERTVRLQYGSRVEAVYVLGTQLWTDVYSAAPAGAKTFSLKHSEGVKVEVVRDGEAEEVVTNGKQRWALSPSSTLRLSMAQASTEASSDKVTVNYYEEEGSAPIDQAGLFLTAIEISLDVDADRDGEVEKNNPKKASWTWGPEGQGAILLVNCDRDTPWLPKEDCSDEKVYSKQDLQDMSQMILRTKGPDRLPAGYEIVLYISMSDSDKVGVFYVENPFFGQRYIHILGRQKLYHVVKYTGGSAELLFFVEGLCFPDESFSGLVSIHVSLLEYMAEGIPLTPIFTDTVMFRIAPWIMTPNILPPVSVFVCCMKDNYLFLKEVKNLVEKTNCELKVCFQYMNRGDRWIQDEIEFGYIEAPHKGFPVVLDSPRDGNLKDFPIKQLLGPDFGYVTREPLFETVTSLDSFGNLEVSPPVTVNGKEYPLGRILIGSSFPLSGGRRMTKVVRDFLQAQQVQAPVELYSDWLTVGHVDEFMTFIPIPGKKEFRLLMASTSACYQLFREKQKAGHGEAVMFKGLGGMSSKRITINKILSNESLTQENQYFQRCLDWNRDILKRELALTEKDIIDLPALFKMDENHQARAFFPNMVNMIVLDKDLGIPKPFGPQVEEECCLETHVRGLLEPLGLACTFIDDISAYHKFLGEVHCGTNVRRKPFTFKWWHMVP
full-length human recombinant PAD4, sequence (Q9UM07 whole entry): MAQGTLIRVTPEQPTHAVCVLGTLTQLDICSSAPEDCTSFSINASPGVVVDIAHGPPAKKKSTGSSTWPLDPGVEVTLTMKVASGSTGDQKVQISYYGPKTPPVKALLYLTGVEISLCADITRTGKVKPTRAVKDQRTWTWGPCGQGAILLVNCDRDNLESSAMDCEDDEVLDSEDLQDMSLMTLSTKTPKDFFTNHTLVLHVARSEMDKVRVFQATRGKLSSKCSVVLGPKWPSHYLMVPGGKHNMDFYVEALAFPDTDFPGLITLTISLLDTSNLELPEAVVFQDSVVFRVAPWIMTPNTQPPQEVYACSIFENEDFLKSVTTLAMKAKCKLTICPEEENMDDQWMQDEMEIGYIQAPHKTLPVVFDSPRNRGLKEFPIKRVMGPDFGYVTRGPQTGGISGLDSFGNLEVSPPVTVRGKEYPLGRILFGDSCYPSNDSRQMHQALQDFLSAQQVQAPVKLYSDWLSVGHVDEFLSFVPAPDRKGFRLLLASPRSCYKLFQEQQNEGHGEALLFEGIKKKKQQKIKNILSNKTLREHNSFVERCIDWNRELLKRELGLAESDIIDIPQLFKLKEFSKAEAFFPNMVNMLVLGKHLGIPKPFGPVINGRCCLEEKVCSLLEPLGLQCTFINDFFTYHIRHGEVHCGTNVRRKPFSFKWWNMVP

B1: mSol3 (antibody, V domains shown)
VH: EVQLEESGADLVKPGASVKLSCKASGYTFTSYWMHWVKQRPGQGLEWIGEIIPSNGHTNYNEKFKSKATLTVDKSSSTAYMQLSSLTPEDSAVYYCARGRDFFYGFGDYWGQGTTLTVSS
VL: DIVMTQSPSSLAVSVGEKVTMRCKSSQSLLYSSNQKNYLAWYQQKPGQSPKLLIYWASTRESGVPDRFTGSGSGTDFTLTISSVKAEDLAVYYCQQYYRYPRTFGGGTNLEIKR
notes: also called cross-reactive anti-PAD antibody mSol3
not listed: [4]
binds: all other assays above

B2: mSol4 (antibody, V domains shown)
VH: LEESGGDLVKLGGSLKLSCAASGFTFSSYYMSWVRQTPEKRLELVAAIHSDGGNTYYPDTVKGRFTISRDNAKNTLYLQMSSLKSEDTALYYCARHSYYGSSYDYWGQGTTLTVSS
VL: DIVLTQSPLSLPVSLGDQASISCESSQSLVHSNGITYLHWYLQKPGQSPKLLIYKVSHRFSGVPDRFSGSGSGTDFTLKISRVEAVDLGVYFCSQSTHVPFTFGSGTKLEIKR
notes: also called cross-reactive anti-PAD antibody mSol4
not listed: [3]
binds: all other assays above
